Residue numbers refer to the chain shown, from its start.
B1: m36.4 (VHH)
VHH: QVQLVQSGGGLVQPGGSLRLSCAASAFDFSDYEMSWVREAPGKGLEWIGEINDSGNTIYNPSLKSRVTISRDNSKNTLYLQMNTLRAEDTAIYYCAIYGGNSGGEYWGQGTLVTVSS
notes: eAd, mutant of m36; also called m36.4 eAd
B2: m36.2 (VHH)
VHH: B1 VHH with V12I, E39Q, A40D, S54R
notes: eAd, mutant of m36 selected from a phage library
B3: m36.1 (VHH)
VHH: B1 VHH with A26T, S65N
notes: as for B2
B4: m36.5 (VHH)
VHH: B1 VHH with R86S
notes: as for B2

Biological target: T1, gp120Bal-CD4
T1 construct: also called 120Bal-CD4 complex
Assay: ELISA, OD 450 nm

Question: For B1, which “EC50 (read off the curve)” value is on record?
Answer: ~1 nM

Question: With B2 as the binder, how does the “EC50 (read off the curve)” value read?
Answer: ~2 nM

Question: How did the “EC50 (read off the curve)” value turn out when B3 was run?
Answer: ~1 nM

Question: For B4, which “EC50 (read off the curve)” value is on record?
Answer: ~1 nM
